The DeepSol protein solubility set

Assay: soluble on expression in E. coli; label from the status in PepcDB or PDB records

Sequence	soluble on expression in E. coli
MSLSCPRCGWVHYINPLPVAIALTVNRNNELLMIRRAHEPAFNEWALPGGFLEAGERPEEGCLRELFEETSLEGTIDKLIGVWHLESGLYGSLIAVAYRVIAAHERISINHEVFEAGFYRPDNMPPVRIPLHRQIIAESRWPERDLSLTEGHHHHHH	not soluble
EKVDIDLRDQVSLQHGAQIFTNYCLSCHSASGMRFNRLKDIGLTDEEIKKNLMFTTDNVGDVMHSAMNPKDAAKWFGAAPPDLTLIARSKGADYLYAYMRGFYKDPTRPSGWNNTVFDKVGMPHPLWEQQGVQAVELDAKGQPVMVKDEHGEMKPKLYWESTGLHSRRLPNGKVIQKEYDAYVRDLVNYLVYMGEPAQLQRKR	not soluble
MLPAVPPQQWALSAGNGSSEVEVVPFQEVWGRSYCRALERLVDVVSEYPSEVEHMFSPSCVSLLRCTGCCGDENLHCVPVETANVTMQLLKIRSGDRPSYVELTFSQHVRCECRPLREKMKPERCGDAVPRR	soluble
MNSDAEMNTEDGGSSPEEFGEADCFSEEEDEEIVLDTSDNDTSYAKEDKKSENEVLDNDLLEAEMNTTIADVQAVLQVDPGVCRILLHKYKWNKESLLERLYEHPDTIAFLIDAQVIPRQQEVIPAGDAECDICCSMDELSGLSCNHRACAECWQAYLTNKIVSDAQSEIECMAPNCKLLIEDEKVLAYIKDPTIIAKYRKMMVASYIEINALLKWCPGVDCGRTVKVSHGEPRLVVCTCGSRFCFSCGQDWHEPVNCRLLKLWMKKCNDDSETSNWINSNTKECPKCMATIEKNGGCNQITCKNTGCKFQFCWMCLGPWTVHANAWYKCNKFDDEASQTARTAQELYRANLTRYLFYYNRYMGHLQSLRLEGKLNKTVKAKMDQMQNLSMSWIDVQFLRKAVDVLSECRNTLMFTYIFAFYLKRDNNSMIFESNQKDLEMETEQLSGLLERDLENEDLLTLKQKVQDTFRYVEHRRKVLLDHCAEGTEQDIWQYNE	not soluble
MTFGRLWEKFLASAYYSDLSPRTQKDYLQHQKKLLAVFGKVPADSIKPEHIRRYMDKRGEQSKTQANHEKSSMSRVYSWGYERGYVKANPCAGVSKFKAKNRERYVTDKEYQAVLSVAPLPVFIAMEIAYLCAARVSDVLSLKWEQIGNDGIFIQQGKTGKKQIKAWSPRLQAAIEKAKQLPTSAYVISNQYGNRYMYKGFNEMWVEARNRAGKISGILTDFTFHDLKAKGISDYEGSSRDKQLFSGHKTEGQVLIYDRKVKVSPTLDVPLPENIPRKYSK	not soluble
MDLSSKPQQQLLNSLPIAGELTVTGEMGVCYKECLKNHAANLGGHALDGCGEFMPSPTATSTDPSSLRCAACGCHRNFHRRDPSENLNFLTAPPISSPSGTESPPSRHVSSPVPCSYYTSAPPHHVILSLSSGFPGPSDQDPTVVRSENSSRGAMRKRTRTKFTPEQKIKMRAFAEKAGWKINGCDEKSVREFCNEVGIERGVLKVWMHNNKYSLLNGKIREIEHGLCLNTHSNDGDGSSSS	soluble
MGSDKIHHHHHHMSEVHTTIIDLDAGAVFSGTPSGRIIKGFDKPCAHTPNIDPDYVFHECSRDIVVWLMDSSDPLYVFGPTGSGKTSAIKQLAARLNYPVFDVTGHGRLEFPDLVGHLSVRDGSMEFQYGPLALAMRHGGILLLNEIDLLEPATATGFNGILDGEPLCIPENGGEIITPHPMFRFAATANTNGGSDDTGLYQGTLRQNLAFLDRFWLCEMPYPAPEAEKALLERRAPMLPDDIRTRMVDYANEVRRLFMGESGTTYGHSIEVTFSTRTLLRWADLTVRFQPLARQGIQPLTYALDRALGFKASKDTRTTLHELAQRLFPQHAATGE	not soluble
MGSDKIHHHHHHMYIQIVFAVKGRNSLIHPSWENELHKYMTGFIQNNGQKLLAINGMPDHIHILIGMKPSCCLSDLIRELKKSSSSFIKDKKLSPYAFQWQEGYGAFSYSHSNLNQVIAYIMNQKEHHKKRTFKEEYLEFIQKFELEYNPKNLFEWMD	not soluble
SLTGKKAEEEYLYQLEQLNQLFTKTEALEESKIFYKNIKFERGLFASHIQDQIEIHKANETIIIPLSSTLYHGPLPLDRVAKLNFVPAIFSSQTLLGKNATTQAFFDITESEKPLQLNFAMNYSLSGNAELKLASGQYHNEQSKTDFDWSNVVLNIDLNQNTPNNYVLSVDTFNSNAPNHAVSTASSIKIKDLVVQGSLQSTKWPFIYSGNINSKIGYFEQNTESAESGEKFSLIQKNSQANLTTQVEGDTVNIINKTNLDELHINGNNLGKVTNNVEFNHIDGNALQELLNILVAIGKADSECLYLKHWCKNYNKQAWPLRIISLKLSLPLFLFLMKKAKWHWI	not soluble
MIRLNVFVRVNETNREKAIEAAKELTACSLKEEGCIAYDTFESSTRRDVFMICETWQNAEVLAAHEKTAHFAQYVGIIQELAEMKLEKFEF	soluble
DIISVALKRHSTKAFDASKKLTAEEAEKIKTLLQYSPSSTNSQPWHFIVASTEEGKARVAKSAAGTYVFNERKMLDASHVVVFCAKTAMDDAWLERVVDQEEADGRFNTPEAKAANHKGRTYFADMHRVDLKDDDQWMAKQVYLNVGNFLLGVGAMGLDAVPIEGFDAAILDEEFGLKEKGFTSLVVVPVGHHSVEDFNATLPKSRLPLSTIVTEC	soluble
MGSDKIHHHHHHMAANRFNGFTDYGIGIGLRIPHYRHILDNKPVVDWFEIISENYMIDGGRPLAVLDAILEQYRVVQHGVSMYFGSVDPLNREHLKRLKNLTRRTKTPWLTDHLCWGSVDGRYTHDLMPLPYTWEAIDVTVAKIKQVRDYLEIPVAVENVSSYAEFHESEMTEWEFLNEVVERADCGILLDVNNIYVSSMNHSFDPHVYVDSVPAERVAQIHIAGHSKYEKYILDTHDHPVIDPVWQLYAHAIRRCGPTATLLEWDDHIPSFEEVHNEALKAKKFLAENAEPVEKKIAAAEARV	not soluble
MSFKVISTGPQAIFQDRGRFGFASAGVGTSGSFDRLSAARANHALGNDPNATVVEILLGGFEVEALHTTSIVFTGTEAEVMVRTAGGQSKNATTNTIIDVAAGERIRVEPATYGMRAYFAARGGFAVEKTLGSASTDLISHMGPRPIEPGDVIDVATDIADSQWWPKLRQLPTLWKRMPTETLTVIRGPRDKWFTQESLNNFFTQVFTVSNDSNRIGLRMHSSEPIQHRVEGELKSEGMVRGSIQIPPGGNPVVFGPDHPVTGGYPVIAVLTSRSCDRSAQLLPGDKVRFKLL	not soluble
MDVKMKGIVRVVPYDPEWKTEFLKIKAMIVDCAGDLIIDVVHVGSTAIEGLASKPIIDIDVVIDSYYVFPAVKDRLAKIGFEHEGNLGVEGREAFKRTFVDDFMPYHLYICPKDGKGYLEHIAFRNYLRDHPEAVKAYGELKMRLAEQFRTDITSYVNAKREFVQNVLKKINS	soluble
MAGRRRWSTEQILDAAAELLLAGDAETFSVRKLAASLGTDSSSLYRHFRNKTELLRAVADRILLSAMDGYRPEGDWKQRLTAVALRLRESFGQQPQLAAVWGRHGSGGTGSRLMMEEVLQALRASGLPDDEIPARYHRLVILISSLITAEGGFGAVGAQEHEQGMEQFRVAVLGADPERFPALSHFAREIRPLGADRGAAFEEILAAHLAHLEAAAP	soluble
MAIVLLVLHVCTGLRGSPVSGRVRMAVDSGIYLAPCSNNDAQEHLKRTVINGVDRDDYGQYTNVGFGDSVSIWGVKGGNESHWQDIDAGDYLFFYTGDETYSQVAEVLATDQNEGLAEHLWPGFEDTWEFIIYLNEPIPVNIDSNEIADYAGYKQNYILGFQSLRGSAVDEINDEYGSIEGYINANRTDGNHIQTSGGSQDPDEGDDSVVDEVLDEADRDEEAYANIARQLEEVGQVVFYGPPGTGKTYNAQQFARWWLHNLQSEPRESQVRSVTFHPSYTYEDFIEGLTANATENSVSYDIKPGKFKAICEDARVAYQETGPNEEPPRYVLLIDEINRGNLAQIFGETITLLEEDKRGTLHVDLAHSGGSFTIPPNLYVIGTMNTADRSVALVDAALRRRFRFIDFPPDYGVARSRFGFDTEYDLTSAARGERSDLEQLQALSIQAVEQLNETIIELPDLGKGKQIGHSYLLVDPDDEQALVDAWRYEILPLLEEYFYGQLSRIRQELFNQNGDSLVDWEREQIKDFDPETLRESLQAIVNAGLEHHHHHH	not soluble
MFLINGHKQESLAVSDRATQFGDGCFTTARVIDGKVSLLSAHIQRLQDACQRLMISCDFWPQLEQEMKTLAAEQQNGVLKVVISRGSGGRGYSTLNSGPATRILSVTAYPAHYDRLRNEGITLALSPVRLGRNPHLAGIKHLNRLEQVLIRSHLEQTNADEALVLDSEGWVTECCAANLFWRKGNVVYTPRLDQAGVNGIMRQFCIRLLAQSSYQLVEVQASLEESLQADEMVICNALMPVMPVCACGDVSFSSATLYEYLAPLCERPN	soluble
MTLKFSYFGTRGIGEPIRMLLTDQEVAFIDHRFSWEQWADIKPTMIFGSCPCLTMGDKEIVQSGTIIRHLARIHGLNGTNEEETIFIDMFYEGVRDLHATYATMIYQNYENGRQPFIQDVLPEHLARLEKLFRTYENGENFVAGANISYVDYVLFEELDIQKILSPTALDRTPQLKKFHEQFGERKNLTEYLKKRAIMKTPVNGNGKQ	not soluble
MSLEQLLTNYSIETQTKSCEDFAFRIGFNDIKYMGGVSESAKDGNRKIYNEMLRYAMDKRNNIQAIIVYSMDRFSRHLASAAPDIEKLNKKNIILYSVQEQISSNDDMGIHFMNFKLSSSQFENRLRSSRARDGVRNRILMGKYPFATPPIGYNKDSDKNLVINEDGELLRKAFKMLLDGYSMMHIMKVMSRYGIIKPVNRWGEIFRNPIYAGLIVSKTNDNKPIKGIHQPIVSEKDFYKLQGIFEFKSKPRLKETDTIDIFPLKTLLQCPNGHGRLTGDIKKTKKNQPAYYKCNKCSFTASAQKANNAFLNLLSVVEFNQVFKDEFKEILDAVFENTFQEMTVKKNKLAREISIKETQLTNLFDAKFAEKINENKFEILSAKYTQSLEDMQKQLVFVTAELPEKKTFIEDCLIDLNNFEKLWDVAEYMDKQQIFNTIFKEKPSIVNNNHKIGLSNISLNPAFRSNLVELVHRKAIITGNYEGHHHHHH	not soluble
MGSDKIHHHHHHMRDRTVEIMWQAIDALDFSRIKAKLSHQKQVQWTPESLESAEAGYRQFLKMAAKYPGVPAVPSEQVDAFWHAHILDTRRYASDCVNIFGHVLHHDPYVGIDGPEDEARLFEMAAQSDVLSMREFGSPLTSASYFAQAAADEPAYCAREATAAEPAYCARMAKGPSYCARMGKALEPAYCAREATANEVVKRDHAAGGQAAYCALTLSQPASC	not soluble
MAIKNAFYAQSGGVTAVINASAAGLLETARAHSDKIGKVYAGRNGIIGALTEDLIDTSAESTEAIRALRHTPSGAFGSCRYKLKSLEDNRREYERLIEVFKAHDIGYFFYNGGGDSADTCLKVSQLAGTLGYPIQAIHVPKTVDNDLPITDCCPGFGSVAKYIAVSMLEASFDVASMAKTSTKVFILEVMGRHAGWIAAAGGLASNEDHEVPIIILFPEVTFDQEKFLAKTDHYVKEYGYCTVVVSEGVKGTDGKFLSDQGLRDAFGHAQLGGVAPVIANIVKNGLGLKYHWGVADYLQRAARHIASGTDVEQAYAMGKAAVEYAIAGHNSVMPTIERISSSPYAWKTGMVELSKVANVEKMMPADFISEDGFGITGKCREYLSPLIEGEDYPPYKNGLPDYVRLKNVAVTKKLAEFKILEHHHHHH	not soluble
ENRDCYSLYRMNPADGKIQQLEVSEDLVNSFSLAQNAPVMVYYGQSASNSDRLYTMNTKKMKSSLLEDLSKDILKDVELGECKAWSFTNSRGDTIYGRYYLPPHFDANRKYPMIVNYYGGCSPVSRNFESRYPHHAYAALGYVVYVIEPSGATGFGQEFSARHVNTAGEGVAQDIIEGTKQFCKEHAFVNDKKIGCIGASYGGFMTQYLQTQTDIFAAAISHAGISDHTSYWGEGYWGYSYSEVSMANSYPWSNPDLFVKQSPLFNADKIHTPLLFLHGDADVNVPVGESIQMFTALKLLGRETAFVAVTGQDHHIVDYGKRIQWQNTIFAWFAKWLQ	not soluble
